Our source for the Kd values is patent US20220112249A1 (published 2022).

For the test, the target named is V1.1. Kind of test: SPR.

B1: CFH (fH67) (other)
chain: TLKPCDYPDIKHGGLYHENMRRPYFPVAVGKYYSYYCDEHFETPSGSYWDHIHCTQDGWSPAVPCLRKCYFPYLENGYNQNYGRKFVQGKSIDVACHPGYALPKAQTTVTCMENGWSPTPRCI
Consider B1, for which the Kd stood at 3.6 nM.
